According to US20230192878A1, “METHODS, THERAPIES AND USES FOR TREATING CANCER” (PFIZER INC., priority 2020, published 2023):

Tests used:
[1] = Preliminary pharmacokinetic (PK) analysis, Phase 1 study; format: in vivo, human
Method: Therefore, a fixed dose is suitable for the dosing of PF-06863135. Based on the encouraging efficacy data and safety data obtained from Part I of Study, a promising RP2D for Part 2A of the study could be a fixed dose equivalent of 1000 μg/kg (i.e., 76 mg) of PF-06863135 either in Q1W or Q2W. A fixed dose equivalent of 600 μg/kg (ie, 44 mg) will likely be used as a priming dose on cycle zero day 1. The initial dose of 44 mg serves as a priming dose and is designed to mitigate the CRS symptoms of the later 76 mg dose. […] Subsequently, the 44 mg (priming) and 76 mg (maintenance) were selected as the single agent RP2D dose. Patient will be administered a single priming dose of 44 mg SC of PF06863135, followed by maintenance dosing of 76 mg Q1W SC or 76 mg Q2W starting 7 days after the single priming dose.

Raji-luc = assay: BCMAxCD3 bispecific mediated cell killing of lymphoma cells with human T cells, with or without GSI; format: cell-based; settings: 60 hours, with or without 1 μM GSI, ± SD
Method: CD3^+ T cells from PBMCs (Stem Cell Technologies) were negatively selected using EasySep Human T cell enrichment kit (Stem Cell Technologies). 10,000 target lymphoma cells expressing luciferase (Raji-luc) were treated with 1 μM GSI. After 24 hours, cells were seeded with 50,000 CD3^+ pan T cells in a clear 96-well V-bottom plate. Cells were further treated with a range of BCMAxCD3 bispecific concentrations with or without 1 μM GSI. 60 hours after treatment, luciferase activity in treated cells was analyzed using NeoLite reagent kit (Perkin Elmer) and acquired on VictorX multimode plate reader (Perkin Elmer). Cell viability was calculated by dividing luciferase activity of treated cells over luciferase activity of untreated control (no BCMAxCD3 bispecific antibody added).

[2] = First in human Phase 1 clinical study: safety (CRS, DLT); format: in vivo
From the text: This Example illustrates an ongoing Phase 1 open-label, multicenter clinical study of PF-06863135 (BCMAxCD3 bispecific) as monotherapy and in combination with sasanlimab, lenalidomide or pomalidomide, in adult patients with advanced multiple myeloma who have relapsed from or are refractory to standard therapy. The study has been registered on ClinicalTrials.gov with identifier NCT03269136 and was first posted August 2017. Study results for Part 1 of the trial and additional arms for the study are described in this Example.
Part 1 of the Study is the […] single agent dose escalation arm at the dose levels of 0.1, 0.3, 1, 3, 10, 30, and 50 μg/kg Q1W by intravenous (IV) administration, and at the dose levels of 80, 130, 215, 360, 600 and 1000 μg/kg Q1W by subcutaneous (SC) administration. Upon reaching maximum tolerated dose (MTD)/maximum administered dose (MAD), patients can be treated at a dose level selected from the foregoing dose levels described in this paragraph, and below the MTD/MAD fora Q2W administration, both IV and SC, to further support the recommended phase 2 dose (RP2D) decision. For the study, dose limiting toxicity observation period is set at 21 days for Q1W dosing and 28 days for Q2W dosing. The treatment cycle, aka cycle, for Q1W dosing would be 3 weeks, and for Q2W dosing would be four weeks.
Clinical Outcome of Part 1 of the Study. As of 15 Apr. 2020, a total of 23 patients were enrolled in Part 1 of the study and had been treated with PF-06863135 administered intravenously (IV) at 0.1 (N=2), 0.3 (N=3), 1 (N=2), 3 (N=3), 10 (N=2), 30 (N=5), and 50 (N=6) μg/kg. As of Aug. 21, 2020, a total of 30 patients were enrolled in Part 1 of the study and had been treated with PF-06863135 administered subcutaneously (SC) at 80 (N=6), 130 (N=4), 215 (N=4), 360 (N=4), 600 (N=6) and 1000 (N=6) μg/kg. Safety and efficacy data were available for in 23 IV and 30 SC treated patients per IMWG (International Myeloma Working Group) criteria.
Part 1.1 of the Study is an alternative maintenance dose escalation arm for single agent PF-06863135. If excessive toxicity occurs or the maximum tolerated dose (MTD)/maximum administered dose (MAD) is reached at a dose level that is earlier than desired in Part 1 of the study described above, a priming dose will be administered one week prior to the day 1 cycle 1 administration of the dose (maintenance dose) at this dose level and for all subsequent dose levels in the dose escalation that may be initiated for Part 1.1. The priming dosing will be at a lower dose level than the maintenance dose.

[3] = 600 μg/kg priming, 1000 μg/kg Q1W or Q2W SC, N = 20

## PF-06863135: heterodimeric humanized full-length bispecific antibody with one BCMA binding arm and one CD3 binding arm
[1]
  Effect of body weight on PF-06863135 exposure: not a clinically relevant factor
Raji-luc; BCMAxCD3 0.00064 nM
  Raji Cell Viability (% control): 94 ± 3.7 % control
Raji-luc; BCMAxCD3 0.0032 nM
  Raji Cell Viability (% control): 107 ± 4.5 % control
Raji-luc; BCMAxCD3 0.016 nM
  Raji Cell Viability (% control): 105.8 ± 10.2 % control
Raji-luc; BCMAxCD3 0.08 nM
  Raji Cell Viability (% control): 89.3 ± 5.7 % control
Raji-luc; BCMAxCD3 0.4 nM
  Raji Cell Viability (% control): 88.1 ± 18.4 % control
Raji-luc; BCMAxCD3 2 nM
  Raji Cell Viability (% control): 71 ± 9.7 % control
Raji-luc; BCMAxCD3 10 nM
  Raji Cell Viability (% control): 82.1 ± 9.7 % control
Raji-luc; BCMAxCD3 50 nM
  Raji Cell Viability (% control): 80 ± 13.2 % control
[2]; 10 μg/kg IV cohort
  CRS observed, patient(s): 1 (50.0%)
[2]; 30 μg/kg IV cohort
  CRS observed, patient(s): 4 (80.0%)
  Patients who experienced dose limiting toxicities (DLTs): 1 patient
[2]; 50 μg/kg IV
  Patients in whom CRS also occurred after later doses (second to fourth): 3 patients
[2]; 50 μg/kg IV cohort
  CRS observed, patient(s): 6 (100.0%)
  Patients who experienced dose limiting toxicities (DLTs): 1 patient
[2]; 80 μg/kg Q1W SC, N = 6
  CRS Grade 1 (patients): 2
  CRS Grade 2 (patients): 1
  CRS Mean duration: 1 days
  Patients with CRS: 3 (50%)
[2]; 130 μg/kg Q1W SC, N = 4
  CRS Grade 1 (patients): 2
  CRS Grade 2 (patients): 0
  CRS Mean duration: 3 days
  Patients with CRS: 2 (50%)
[2]; 215 μg/kg Q1W SC, N = 4
  CRS Grade 1 (patients): 3
  CRS Grade 2 (patients): 0
  CRS Mean duration: 3 days
  Patients with CRS: 3 (75%)
[2]; 360 μg/kg Q1W SC, N = 4
  CRS Grade 1 (patients): 2
  CRS Grade 2 (patients): 1
  CRS Mean duration: 1.7 days
  Patients with CRS: 3 (75%)
[2]; 600 μg/kg Q1W SC, N = 6
  CRS Grade 1 (patients): 4
  CRS Grade 2 (patients): 2
  CRS Mean duration: 1.7 days
  Patients with CRS: 6 (100%)
[2]; 600 μg/kg priming then 1000 μg/kg vs 1000 μg/kg without priming, SC
  Decrease of medium duration of CRS by introducing priming dose: 50%
[2]; [3]
  CRS Grade 1 (patients): 11
  CRS Grade 2 (patients): 9
  CRS Mean duration: 2 days
  Patients with CRS: 20 (100%)
[2]; 1000 μg/kg Q1W SC, N = 6
  CRS Grade 1 (patients): 5
  CRS Grade 2 (patients): 1
  CRS Mean duration: 4 days
  Patients with CRS: 6 (100%)
[2]; IV cohorts, 23 patients, febrile neutropenia Grade 3 and electrocardiogram QT prolongation Grade 1
  Patients who experienced dose limiting toxicities (DLTs): 2 patients
[2]; IV cohorts, each of the 11 patients with CRS
  CRS onset after dosing: ≤ 2 days
[2]; Part 1.1, 600 μg/kg priming, 1000 μg/kg SC
  Impact of dose frequency (Q1W v. Q2W) on the CRS: no impact
[2]; SC cohorts (80-1000 μg/kg)
  Patients who experienced dose limiting toxicities (DLTs): No patients
[2]; SC cohorts, primarily
  CRS onset after dosing: ≤ 2 days
[2]; all IV treated patients
  Patients who experienced maximum Grade 1 CRS: 6 (26.1%)
  Patients who experienced maximum Grade 2 CRS: 5 (21.7%)
[2]; all SC treated patients
  Patients who experienced maximum Grade 1 CRS: 18 (60.0%)
  Patients who experienced maximum Grade 2 CRS: 5 (16.7%)
[2]; despite higher overall dose exposure in SC-treated patients
  CRS severity in SC-treated vs IV-treated patients: less severe CRS
[2]; highest dose levels of 600 and 1000 μg/kg SC
  Toxicities: tolerable and manageable
